# Assay results published in patent US20110038791.
# pKd: −log10 of the molar value.
# Key:
# [1] = system: Six1 + Eya2 Eya domain (ED) complex; assay: FP; conditions: DMSO no effect
# [2] = system: Six1, near full-length (natural degradation product ending at residue 259); assay: FP; conditions: 28 kD Six1 with 10 kD fluorescein DNA, single cuvette
# [3] = system: Six1 + Eya2 Eya domain (ED) complex; assay: EMSA; conditions: addition of Eya ED increases affinity
# Six1, full-length = target: T1, Six1, full-length (UniProt Q15475); assay: EMSA; conditions: Six1 alone
# T1 sequence: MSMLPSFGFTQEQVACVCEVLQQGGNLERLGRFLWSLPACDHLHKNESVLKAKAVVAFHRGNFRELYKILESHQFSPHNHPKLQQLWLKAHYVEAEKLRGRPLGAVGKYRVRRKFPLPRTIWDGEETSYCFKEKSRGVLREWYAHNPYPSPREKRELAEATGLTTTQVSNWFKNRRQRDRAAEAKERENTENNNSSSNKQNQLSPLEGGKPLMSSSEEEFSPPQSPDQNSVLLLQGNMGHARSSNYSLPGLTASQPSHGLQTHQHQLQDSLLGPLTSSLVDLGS
# [4] = system: Six1, near full-length (natural degradation product ending at residue 259); assay: EMSA; conditions: preliminary estimate
substance,measurement,setting,value
5'-fluorescein 16 nt MEF3 dsDNA,binding (fold increase in anisotropy),[1],3
same,binding (fold increase in polarization),[2],> 4
18 nt dsDNA containing MEF3 site,pKd,[3],6.52
same,pKd,"Six1, full-length",6.00
16 nt DNA containing MEF3 motif,pKd,[4],6.00
